# Source: patent US20140135264A1 (CLEVELAND CLINIC FOUNDATION, published 2014)
# B1: αvβ3 integrin on human endothelial cells (HUVEC; vasculature of human prostate tissue) (receptor)
# chain 1: FNLDVDSPAEYSGPEGSYFGFAVDFFVPSASSRMFLLVGAPKANTTQPGIVEGGQVLKCDWSSTRRCQPIEFDATGNRDYAKDDPLEFKSHQWFGASVRSKQDKILACAPLYHWRTEMKQEREPVGTCFLQDGTKTVEYAPCRSQDIDADGQGFCQGGFSIDFTKADRVLLGGPGSFYWQGQLISDQVAEIVSKYDPNVYSIKYNNQLATRTAQAIFDDSYLGYSVAVGDFNGDGIDDFVSGVPRAARTLGMVYIYDGKNMSSLYNFTGEQMAAYFGFSVAATDINGDDYADVFIGAPLFMDRGSDGKLQEVGQVSVSLQRASGDFQTTKLNGFEVFARFGSAIAPLGDLDQDGFNDIAIAAPYGGEDKKGIVYIFNGRSTGLNAVPSQILEGQWAARSMPPSFGYSMKGATDIDKNGYPDLIVGAFGVDRAILYRARPVITVNAGLEVYPSILNQDNKTCSLPGTALKVSCFNVRFCLKADGKGVLPRKLNFQVELLLDKLKQKGAIRRALFLYSRSPSHSKNMTISRGGLMQCEELIAYLRDESEFRDKLTPITIFMEYRLDYRTAADTTGLQPILNQFTPANISRQAHILLDCGEDNVCKPKLEVSVDSDQKKIYIGDDNPLTLIVKAQNQGEGAYEAELIVSIPLQADFIGVVRNNEALARLSCAFKTENQTRQVVCDLGNPMKAGTQLLAGLRFSVHQQSEMDTSVKFDLQIQSSNLFDKVSPVVSHKVDLAVLAAVEIRGVSSPDHVFLPIPNWEHKENPETEEDVGPVVQHIYELRNNGPSSFSKAMLHLQWPYKYNNNTLLYILHYDIDGPMNCTSDMEINPLRIKISSLQTTEKNDTVAGQGERDHLITKRDLALSEGDIHTLGCGVAQCLKIVCQVGRLDRGKSAILYVKSLLWTETFMNKENQNHSYSLKSSASFNVIEFPYKNLPIEDITNSTLVTTNVTWGIQPAPMPVPVWVIILAVLAGLLLLAVLVFVMYRMGFFKRVRPPQEEQEREQLQPHENGEGNSET
# chain 2: GPNICTTRGVSSCQQCLAVSPMCAWCSDEALPLGSPRCDLKENLLKDNCAPESIEFPVSEARVLEDRPLSDKGSGDSSQVTQVSPQRIALRLRPDDSKNFSIQVRQVEDYPVDIYYLMDLSYSMKDDLWSIQNLGTKLATQMRKLTSNLRIGFGAFVDKPVSPYMYISPPEALENPCYDMKTTCLPMFGYKHVLTLTDQVTRFNEEVKKQSVSRNRDAPEGGFDAIMQATVCDEKIGWRNDASHLLVFTTDAKTHIALDGRLAGIVQPNDGQCHVGSDNHYSASTTMDYPSLGLMTEKLSQKNINLIFAVTENVVNLYQNYSELIPGTTVGVLSMDSSNVLQLIVDAYGKIRSKVELEVRDLPEELSLSFNATCLNNEVIPGLKSCMGLKIGDTVSFSIEAKVRGCPQEKEKSFTIKPVGFKDSLIVQVTFDCDCACQAQAEPNSHRCNNGNGTFECGVCRCGPGWLGSQCECSEEDYRPSQQDECSPREGQPVCSQRGECLCGQCVCHSSDFGKITGKYCECDDFSCVRYKGEMCSGHGQCSCGDCLCDSDWTGYYCNCTTRTDTCMSSNGLLCSGRGKCECGSCVCIQPGSYGDTCEKCPTCPDACTFKKECVECKKFDRGALHDENTCNRYCRDEIESVKELKDTGKDAVNCTYKNEDDCVVRFQYYEDSSGKSILYVVEEPECPKGPDILVVLLSVMGAILLIGLAALLIWKLLITIHDRKEFAKFEEERARAKWDTANNPLYKEATSTFTNITYRGT
# Columns and labels:
# [1] = molecular target: αvβ3 integrin, wild type, on mouse lung endothelial cells (WT EC) (mouse) (UniProt P43406); assay: flow cytometry, FITC-fibrinogen on WT mouse lung EC, 1 mM MnCl2 against unstimulated cells
# [2] = molecular target: DiYF β3 integrin (αvβ3 with β3 tyrosines 747 and 759 substituted for phenylalanines), on DiYF mouse lung endothelial cells (mouse) (UniProt P43406); assay: flow cytometry, FITC-fibrinogen on DiYF mouse lung EC, 1 mM MnCl2 against unstimulated cells
# [3] = molecular target: DiYF β3 integrin (αvβ3 with β3 tyrosines 747 and 759 substituted for phenylalanines), on DiYF mouse lung endothelial cells (mouse) (UniProt P43406); assay: flow cytometry, FITC-fibrinogen on DiYF mouse lung EC, 20 ng/ml VEGF against unstimulated cells
# [4] = molecular target: αvβ3 integrin, wild type, on mouse lung endothelial cells (WT EC) (mouse) (UniProt P43406); assay: flow cytometry, FITC-fibrinogen on WT mouse lung EC, 20 ng/ml VEGF against unstimulated cells (printed as 'at least')
# [5] = molecular target: αvβ3 integrin on human endothelial cells (HUVEC; vasculature of human prostate tissue) (human) (UniProt P06756); assay: flow cytometry, WOW-1 Fab on HUVEC, VEGF-A165 against resting cells
# [6] = molecular target: αvβ3 integrin, wild type, on mouse lung endothelial cells (WT EC) (mouse) (UniProt P43406); assay: flow cytometry, WOW-1 Fab on WT mouse lung EC, 1 mM MnCl2 against unstimulated cells
# [7] = molecular target: DiYF β3 integrin (αvβ3 with β3 tyrosines 747 and 759 substituted for phenylalanines), on DiYF mouse lung endothelial cells (mouse) (UniProt P43406); assay: flow cytometry, WOW-1 Fab on DiYF mouse lung EC, 1 mM MnCl2 against unstimulated cells
# [8] = molecular target: αvβ3 integrin, wild type, on mouse lung endothelial cells (WT EC) (mouse) (UniProt P43406); assay: flow cytometry, WOW-1 Fab on WT mouse lung EC, 20 ng/ml VEGF against unstimulated cells
# [9] = molecular target: DiYF β3 integrin (αvβ3 with β3 tyrosines 747 and 759 substituted for phenylalanines), on DiYF mouse lung endothelial cells (mouse) (UniProt P43406); assay: flow cytometry, WOW-1 Fab on DiYF mouse lung EC, 20 ng/ml VEGF against unstimulated cells
# [10] = molecular target: αvβ3 integrin on human endothelial cells (HUVEC; vasculature of human prostate tissue) (human) (UniProt P06756); assay: immunohistochemistry, WOW-1 staining density, prostate carcinoma against normal prostate tissue
# [11] = molecular target: VEGF receptor-2 on mouse lung endothelial cells (mouse) (UniProt P35918); assay: cell-based or functional assay
# [12] = molecular target: DiYF β3 integrin (αvβ3 with β3 tyrosines 747 and 759 substituted for phenylalanines), on DiYF mouse lung endothelial cells (mouse) (UniProt P43406); assay: cell-based or functional assay
# [13] = molecular target: VEGFR-2 on human endothelial cells (HUVEC; vasculature of human prostate tissue) (human, UniProt P35968 20-1356); assay: cell-based or functional assay
# Chain of VEGFR-2 on human endothelial cells (HUVEC; vasculature of human prostate tissue) (P35968 20-1356): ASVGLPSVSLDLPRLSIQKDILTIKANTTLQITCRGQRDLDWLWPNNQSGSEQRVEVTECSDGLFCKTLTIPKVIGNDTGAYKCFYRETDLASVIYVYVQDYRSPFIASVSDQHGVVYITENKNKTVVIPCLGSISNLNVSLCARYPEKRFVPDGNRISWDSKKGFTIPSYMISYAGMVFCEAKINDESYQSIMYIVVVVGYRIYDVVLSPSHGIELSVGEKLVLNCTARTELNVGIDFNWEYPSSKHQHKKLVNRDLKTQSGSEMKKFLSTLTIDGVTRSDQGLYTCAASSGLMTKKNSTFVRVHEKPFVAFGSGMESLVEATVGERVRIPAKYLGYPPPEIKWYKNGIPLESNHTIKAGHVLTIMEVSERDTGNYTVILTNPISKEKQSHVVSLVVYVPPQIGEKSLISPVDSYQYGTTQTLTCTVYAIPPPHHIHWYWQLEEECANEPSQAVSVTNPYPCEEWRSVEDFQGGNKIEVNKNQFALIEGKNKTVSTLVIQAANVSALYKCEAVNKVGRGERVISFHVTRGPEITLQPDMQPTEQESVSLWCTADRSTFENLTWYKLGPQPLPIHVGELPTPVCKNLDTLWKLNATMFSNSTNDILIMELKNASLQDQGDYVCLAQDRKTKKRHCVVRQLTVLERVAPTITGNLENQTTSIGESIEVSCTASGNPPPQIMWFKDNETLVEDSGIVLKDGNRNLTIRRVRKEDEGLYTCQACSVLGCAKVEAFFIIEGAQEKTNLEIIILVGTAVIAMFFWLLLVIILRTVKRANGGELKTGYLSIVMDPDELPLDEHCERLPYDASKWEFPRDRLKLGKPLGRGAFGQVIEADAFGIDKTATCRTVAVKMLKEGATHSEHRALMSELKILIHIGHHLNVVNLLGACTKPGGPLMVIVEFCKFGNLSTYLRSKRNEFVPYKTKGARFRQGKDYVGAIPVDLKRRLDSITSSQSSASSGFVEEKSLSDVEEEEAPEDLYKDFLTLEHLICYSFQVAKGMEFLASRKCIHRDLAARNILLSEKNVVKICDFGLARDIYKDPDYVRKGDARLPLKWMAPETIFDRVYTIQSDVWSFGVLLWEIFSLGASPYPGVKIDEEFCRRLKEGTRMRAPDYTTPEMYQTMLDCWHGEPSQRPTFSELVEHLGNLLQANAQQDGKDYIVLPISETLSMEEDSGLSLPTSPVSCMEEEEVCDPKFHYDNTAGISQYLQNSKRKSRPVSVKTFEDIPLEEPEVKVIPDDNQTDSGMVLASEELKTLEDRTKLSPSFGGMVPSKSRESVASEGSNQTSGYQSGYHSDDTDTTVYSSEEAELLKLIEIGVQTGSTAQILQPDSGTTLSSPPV
# Chain of VEGF receptor-2 on mouse lung endothelial cells (mouse) (P35918 20-1345): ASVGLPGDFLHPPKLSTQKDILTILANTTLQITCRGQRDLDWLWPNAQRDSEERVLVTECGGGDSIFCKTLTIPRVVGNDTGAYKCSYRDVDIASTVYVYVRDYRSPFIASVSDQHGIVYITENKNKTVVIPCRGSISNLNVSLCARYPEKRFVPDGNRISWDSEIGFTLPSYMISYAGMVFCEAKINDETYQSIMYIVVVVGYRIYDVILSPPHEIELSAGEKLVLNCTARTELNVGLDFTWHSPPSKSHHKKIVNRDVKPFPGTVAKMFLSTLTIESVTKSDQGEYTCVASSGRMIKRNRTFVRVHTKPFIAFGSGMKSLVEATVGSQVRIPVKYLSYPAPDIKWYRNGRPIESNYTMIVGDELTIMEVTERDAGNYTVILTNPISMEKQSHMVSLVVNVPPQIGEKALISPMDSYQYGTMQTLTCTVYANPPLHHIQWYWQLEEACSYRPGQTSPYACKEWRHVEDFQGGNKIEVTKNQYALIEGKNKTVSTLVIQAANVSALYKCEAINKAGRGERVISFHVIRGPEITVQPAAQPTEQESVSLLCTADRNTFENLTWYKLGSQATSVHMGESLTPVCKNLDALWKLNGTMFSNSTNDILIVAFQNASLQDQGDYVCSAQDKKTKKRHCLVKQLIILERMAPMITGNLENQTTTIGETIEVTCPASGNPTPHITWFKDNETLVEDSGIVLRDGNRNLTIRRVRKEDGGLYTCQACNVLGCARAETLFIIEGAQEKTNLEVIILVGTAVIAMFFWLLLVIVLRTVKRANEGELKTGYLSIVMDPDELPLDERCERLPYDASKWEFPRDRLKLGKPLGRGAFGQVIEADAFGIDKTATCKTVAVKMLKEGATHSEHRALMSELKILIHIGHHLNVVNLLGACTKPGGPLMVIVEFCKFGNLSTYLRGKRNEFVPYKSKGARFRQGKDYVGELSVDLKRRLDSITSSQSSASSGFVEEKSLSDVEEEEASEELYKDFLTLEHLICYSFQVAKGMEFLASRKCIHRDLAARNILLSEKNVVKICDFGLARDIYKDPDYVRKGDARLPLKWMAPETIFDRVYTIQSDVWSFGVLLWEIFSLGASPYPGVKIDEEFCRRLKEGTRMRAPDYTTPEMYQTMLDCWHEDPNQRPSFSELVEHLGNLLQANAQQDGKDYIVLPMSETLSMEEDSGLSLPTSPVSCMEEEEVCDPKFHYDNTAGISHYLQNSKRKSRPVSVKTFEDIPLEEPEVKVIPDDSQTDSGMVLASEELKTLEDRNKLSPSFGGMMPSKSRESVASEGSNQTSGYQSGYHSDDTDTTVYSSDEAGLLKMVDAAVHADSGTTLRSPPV
molecule,measurement,setting,value
Fluorescein isothiocyanate (FITC)-labeled fibrinogen (ligand),fold increase of binding,[1],> 40 fold
same,fold increase of binding,[2],17 fold
same,fold increase of binding,[3],3 fold
same,fold increase of binding,[4],6 fold
WOW-1 Fab,fold increase of binding,[5],6 fold
same,fold increase of binding,[6],30 fold
same,fold increase of binding,[7],14 fold
same,fold increase of binding,[8],9 fold
same,fold increase of binding,[9],3.5 fold
same,fold increase of WOW-1 density,[10],2.7 fold
VEGF-A165 (ligand),"VEGFR-2 phosphorylation in DiYF EC (immunoprecipitation, anti-phosphotyrosine blot)",[11],2.5 fold
same,"VEGFR-2 phosphorylation in WT EC (immunoprecipitation, anti-phosphotyrosine blot)",[11],6 fold
vitronectin (ligand),"fold decrease in adhesion of DiYF EC to vitronectin-coated wells, against WT EC",[12],2 fold
same,"fold decrease in spreading of DiYF EC on vitronectin-coated wells, against WT EC",[12],4 fold
B1,fold decrease in VEGFR-2 phosphorylation in response to VEGF in HUVEC after β3 siRNA,[13],~3 fold
